The values that follow come from patent US20170327561A1, “Anti-Angiogenic Properties of Collagen V Derived Fragments” (Ecole Normale Superieure de Lyon, priority 2014, published 2017).

Numbering of substitutions follows the chain as printed. Entries after “also recorded” stand apart in the source; their conditions may differ.

Series [1] relates to FGF-2-induced ERK1/2 and Akt phosphorylation in HUVEC. The series can be described thus: Phosphorylation assay (Western blot) after FGF-2 stimulation. The series is classed as cell-based. As to conditions: peptide 8 μg/mL 24 h, FGF-2 50 ng/mL. The method, then: (§1) HUVEC were seeded at 2.10^5 cells/wells in ECGM2 in 6-well plates. The cells were treated with HEPV or ΔHBS-HEPV (8 μg/mL) during 24 h in serum free medium and then stimulated with FGF-2 or VEGF (50 ng/mL) for 5 or 20 minutes at 37° C. Cells were then washed twice with cold PBS and scraped and lysed at 4° C. in lysis buffer 1% NP-40 (150 mM NaCl, 50 mM Hepes pH 7.4, 5 mM EDTA, 10% glycerol, 1% NP-40, complete protease inhibitor cocktail (Roche), 1 mM Na3VO4). After centrifugation (13 000 g, 15 min, 4° C.), soluble proteins were collected. Protein amount was determined by BCA protein assay (Pierce) and equal amounts of proteins (10 μg) were loaded on SDS-PAGE and transfer on PVDF membrane at 100 V during 1 h. The blots were blocked with 5% BSA in TBS-T buffer (20 αmM Tris-HCl pH 7.4 and 0.05% Tween 20) and incubated with primary antibodies in TBST containing 5% bovine serum albumin, overnight at 4° C. Immunoreactivity was detected by sequential incubation with horseradish peroxidase-conjugated secondary antibodies purchased and ECL detection reagents purchased from Biorad. The antibodies used for phospho-protein detection were the followings: anti-AKT, anti-phospho-Akt (Ser473), anti-ERK1/2 and anti-phospho-ERK1/2 (Thr202/Tyr204, Thr185/Tyr187) (all from Cell Signaling Technology).
The aim of the experiments presented in FIG. 4 was to determine if, after incubation of endothelial cells with the peptide HEPV, the response to FGF-2 was affected by the presence of this peptide. The measured response to FGF-2 is the level of phosphorylation of proteins ERK 1/2 and Akt, involved in the signalization pathway of FGF-2 and VEGF, as determined with specific antibodies.
Endothelial cells HUVEC have been treated during 24 hours with HEPV or the control peptide ΔHBS-HEPV, and have then been stimulated with FGF-2 (FIG. 4A) or VEGF (50 ng/ml) (FIG. 4B).
(In western blotting, separated proteins are transferred to a membrane and probed.)

Series [2] is described as follows: Heparin-Sepharose affinity chromatography (NaCl gradient elution). The series is classed as binding. The settings on record: linear NaCl gradient 0-500 mM, Tris-HCl pH 7.4. The protocol: Heparin-Sepharose affinity columns (HiTrap Heparin, Amersham) were equilibrated in 50 mM Tris-HCl (pH 7.4). Protein samples were loaded onto a column, and a programmed linear gradient of 0-500 mM NaCl, 1M Tris-HCl (pH 7.4) was applied at a flow rate of 0.5 ml/min, confirmed by continuous conductivity measurement. Fractions (1 ml) were collected, and the elution profile of protein samples was determined by monitoring the absorbance at 214 nm. To accurately compare elution positions of the mutant, its elution with NaCl gradient was achieved versus a standard HEPV elution.
The affinity of both peptides for heparin is compared, on a heparin-sepharose column, determined with the necessary quantity of NaCl to elute the peptides.

In series [3] the test system is FGF-2 induced angiogenesis. The series can be described thus: Hemoglobin measurement in implanted FGF-2 sponges. The series is classed as in vivo, nude mice. The settings on record: 20 μg peptide first day then every two days, after 7 days of treatment. An excerpt:
(B) Formation of new blood vessels in nude mice implanted with a sponge impregnated with FGF-2 or PBS. After repeated treatments with peptides HEPV or HEPV-ΔHBS, the sponges are extracted and the presence of hemoglobin quantified. The presence of hemoglobin reflects the blood vessels content, as documented by the photos.
Disc Cellspon cellulose sponges (thickness 2 mm, diameter 10 mm; Cellomeda, Turku, Finland) were implanted under the skin of the mice. Prior to implantation, the sponges were hydrated with 50 μl of either PBS (negative control) or FGF-2 (200 ng/50 μl; positive angiogenic control) (recombinant FGF-2, Eurobio-AbCys, Les Ulis, France). […]
After implantation of the PBS or FGF-2 treated sponges and treatment with 50 μl containing 50 μg HEP peptides at DO, 2, 3 and 5, the hemoglobin content was measured at D8. […] Each sponge was homogenized in 1 ml of RIPA lysis buffer containing a cocktail of protease inhibitors, centrifuged at 200 g, and the supernatants were quantified. The extent of vascularization of the sponge implants was assessed by measuring the concentration of hemoglobin with Drabkin's reagent (Sigma-Aldrich, Saint-Quentin Fallavier, France). […]
20 μg of HEPV or ΔHBS-HEPV have been injected simultaneously with PBS or FGF-2, at the first day and then every two days. After 7 days of treatment, sponges are taken out and analyzed. […]

In series [4] the test system is murine TS/Apc breast cancer tumors. Description: Immunohistology of tumor sections (anti-CD31, anti-Ki67). The series is classed as in vivo, nude mice. The protocol: At day 20, 3 mice/group were sacrificed for immunohistology studies. At day 35 days after implantation all remaining tumors were extracted.
Frozen sections (8 μm) from tumors were fixed in acetone for 10 min. Sections were then washed 3×5 min in Tris-buffered saline containing 0.1% Tween 20, and endogenous peroxidases were blocked with 0.1% H2O2 in methanol for 20 min. Sections were then sequentially incubated for 1 h with a rat monoclonal anti-CD31 antibody (MEC13.3;1:500; Pharmingen) or rabbit anti-Ki67 (1:100; AbCAM) and for 1 h with goat anti-rat antibody for CD31 (1:500; Cell-signaling) or goat anti-rabbit for Ki67 (1:200; Dako). […] Sections were counterstained with hematoxylin and all were mounted.
Staining against the endothelial marker CD31 by means of immunohistochemistry was followed by observation under low magnification scope (100×), five field of view of each tumor (5 tumors by condition). Then, vessels quantity were measured in each of these areas utilizing ImageJ software (http://rsbweb.nih.gov/ij). All counts were performed in a blinded manner.
After immunohistochemical staining against Ki67, slides were observed under high magnification scope (200×). Six to nine areas by tumor were photographed. These photographs were analyzed by the plugging ImmunoRatio in ImageJ software (http://rsbweb.nih.gov/ij). The Ki67 index was evaluated in a blinded manner and calculated as Ki67-positive cells divided by all tumor cells in one field.
Mice from each group are sacrificed at day 20 and day 33 to check the formation of novel blood vessels. The account of the blood vessels is realized by observations of the tumors samples.
The proliferation of tumor cells with an antibody anti-Ki67 is also realized on these tumor samples.

Series [5] concerns human dermal microvascular endothelial cells (HDMEC). The series can be described thus: Quantitative real-time RT-PCR of collagen genes in HEPV-treated endothelial cells. The series is classed as cell-based. The settings on record: HDMEC treated with HEPV for 4, 12 and 24 hours; relative to untreated controls, normalized to L30. The method, then: Expression of COL14A1 and COL18A1 mRNA in human dermal microvascular endothelial cells (HDMEC) treated with HEPV for 4, 12 and 24 hours, analyzed by real-time PCR. Values are normalized to the house keeping gene L30. Quantification is expressed relative to controls (cells cultivated in the same conditions without HEPV). Values are mean±SEM (n=3).
Total RNA was isolated from 8×10^6 cells by phenol-chloroform-isopropanol extraction (Trizol Reagent, Invitrogen). A reverse transcriptase reaction was performed on 1 μg of RNA using M-MLV reverse transcriptase (Promega). Quantitative PCRs were performed using SYBR Green Supermix (Biorad) and specific primers using a I-Cycler Optical System (Biorad). The following primers were used: […]
L30 was selected as housekeeping gene and used for normalization. Relative transcript abundances were determined as well known by the person skilled in the art. Relative gene expression was determined using the 2^−ΔΔC^T method. Student's t-tests were used to determine statistical significance (n=4).
A transcriptomic analysis has been performed, in order to identify the HEPV-regulated genes. Endothelial HDMEC cells have been treated with HEPV or not, for 4, 12 and 24 hours.
For orientation: Real-time PCR tracks product formation cycle by cycle.

Series [6] can be described thus: Organ distribution of the peptide after injection into the blood system. The series is classed as in vivo. The settings on record: mouse.
Series [7] has as its system VEGF-induced ERK1/2 phosphorylation in HUVEC. Description: Phosphorylation assay (Western blot) after VEGF stimulation. The series is classed as cell-based. The settings on record: peptide 8 μg/mL 24 h, VEGF 50 ng/ml. The protocol:
as §1, with “The blots were blocked with 5% BSA in TBS-T buffer (20 αmM Tris-HCl pH 7.4 and 0.05% Tween 20) and incubated with primary antibodies in TBST containing 5% bovine serum albumin, overnight at 4° C.” left out, “The antibodies used for phospho-protein detection were the followings: anti-AKT, anti-phospho-Akt (Ser473), anti-ERK1/2 and anti-phospho-ERK1/2 (Thr202/Tyr204, Thr185/Tyr187) (all from Cell Signaling Technology).” left out
The aim of the experiments presented in FIG. 4 was to determine if, after incubation of endothelial cells with the peptide HEPV, the response to FGF-2 was affected by the presence of this peptide. The measured response to FGF-2 is the level of phosphorylation of proteins ERK 1/2 and Akt, involved in the signalization pathway of FGF-2 and VEGF, as determined with specific antibodies. […]

Series [8] has as its system murine TS/Apc breast cancer cells implanted subcutaneously. The series can be described thus: Antitumor activity, tumor growth by caliper. The series is classed as in vivo, nude mice. The settings on record: 50 μg peptide every 2 days, versus HEPV-ΔHBS control; from day 20 of treatment. The protocol:
(A) Murine Tsa/Pc breast cancer cells implanted subcutaneously are treated from day 5 repeatedly by peritumoral injections of 50 μl PBS containing 50 μg control (HEPV-ΔHBS) of HEPV peptides every 2 days. […] Tumors sections were immunostained using an anti-CD31 antibody that detects blood vessels (B) or an anti-Ki67 antibody that stains proliferating cells (C).
TS/Apc-pGL3 is a cell line derived from the original adenocarcinoma TS/Apc mouse cell line stably transfected with the pGL3-luciferase reporter gene (Promega, Charbonnieres, France). Cells were cultured at 37° C. in a humidified 5% CO2 incubator in RPMI 1640 supplemented with 1% glutamine, 10% fetal bovine serum, 50 units/ml penicillin, 50 μg/ml streptomycin, β-mercaptoethanol (25 μM) and 700 μg/ml Geneticin® (G418 sulphate; Gibco, Paisley, UK).
Twenty female athymic Swiss nude mice, purchased from Janvier (Le Genest Saint Isle, France) at 6-8 weeks of age were used and maintained under specific pathogen-free conditions. Mice received a subcutaneous (s.c.) injection of 10^6 TS/Apc-pGL3 cells suspended in 200 μl of PBS into the right flank usually results in formation of 6-8 mm-diameter tumors after one week. […] Tumor growth was evaluated using calipers.
Tumors have been induced by implantation of murine breast cancer cells (TSA) in nude mice. […] The volume of the tumors is measured with a caliper.

B1: HEPV: 12 kDa recombinant fragment of the collagen V pro-α1 chain, residues Ile824 to Pro950, SEQ ID NO. 1, binds heparin (protein, listed as Homo sapiens)
chain: IKGDRGEIGPPGPRGEDGPEGPKGRGGPNGDPGPLGPPGEKGKLGVPGLPGYPGRQGPKGSIGFPGFPGANGEKGGRGTPGKPGPRGQRGPTGPRGERGPRGITGKPGPKGNSGGDGPAGPPGERGP
modifications: HEPV
With B1, in series [1], the “Phosphorylation of Akt after stimulation with FGF-2” value was “inhibits” and the “Phosphorylation of ERK1/2 after stimulation with FGF-2” value is “inhibited”. In addition, the “NaCl concentration needed to elute the peptide from heparin-sepharose” value in series [2] is on record as 0.35 M. In series [3], the “Decrease of hemoglobin level in sponges, in comparison with mice treated with ΔHBS-HEPV” value was 2.5 times. Also, in series [4] (day 20), the “Blood vessels density in tumors (anti-CD31), compared to ΔHBS-HEPV-treated mice” value is “significant decrease” and the “Tumor cells proliferation (anti-Ki67)” value was “significant decrease”. In series [4] (day 33), the “Blood vessels density in tumors (anti-CD31), compared to ΔHBS-HEPV-treated mice” value is “less significant” and the “Tumor cells proliferation (anti-Ki67)” value is reported as “the proliferation strikes back”. In series [5], the “Expression of COL4A1 mRNA” value is “up-regulated” and the “Expression of COL18A1 mRNA” value is “up-regulated”. In addition, the “Toxicity (concluded from absence of liver accumulation)” value in series [6] was “non-toxic”. Further, in series [6] (results not shown), the “Accumulation in various organs” value was “does not accumulate non-specifically in various organs, except in kidney and bladder”; the “Accumulation into the liver” value is “does not accumulate into the liver”. Also, the “Phosphorylation of ERK1/2 after stimulation with VEGF” value in series [7] is listed as “present a phosphorylation of ERK1/2”. Besides, the “Tumor growth (tumor volume)” value in series [8] is “slows down; also recorded: significantly (p<0.05) slowed down”.

B2: ΔHBS-HEPV: non-functional HEPV mutant, SEQ ID NO. 4, Lys905, Arg909 and Arg912 replaced with alanines; negative control (protein)
chain: B1 chain with K82A, R86A, R89A
modifications: Synthetic Mutant of HEPV
notes: 4, Lys905, Arg909 and Arg912 replaced with alanines; negative control
B2: the “Phosphorylation of ERK1/2 after stimulation with FGF-2” value in series [1] is given as “inefficient”. For the same molecule, the “NaCl concentration needed to elute the peptide from heparin-sepharose” value in series [2] is on record as 0.2 M.
